# Source: patent EP0799050B1, “RADIOLABELED ANNEXIN-GALACTOSE CLUSTER CONJUGATES” (NEORX CORPORATION, priority 1994, dated 1996)
# Experiment: blood clearance in the swine model
# Details: in vivo
# Description: Annexin V-galactose was radiolabeled with technetium-99m using a diamide dimercaptide (N2S2) chelate as described by Kasina et. al., J. Nucl. Med. 32: 1445-51, 1991. The preformed active ester chelate was diluted with 2.0 ml water and purified before conjugation to annexin V-galactose using a modified conditioned C-18 column (commercially available from J.T. Baker), as described by Fritzberg et. al., Proc. Natl. Acad. Sci. USA 85: 4025-29, 1988, washing with 2.0 ml water eight times followed by drying the column for 5 min and eluting with 100% acetonitrile. The solvent was removed under a steady stream of N2. Then 0.15 ml of PBS, 0.35 ml of annexin V-galactose (4.7:1 galactose:annexin V) at 1.0 mg/ml, and 0.2 ml of 0.2M bicarbonate buffer (pH 10.0) were added for conjugation to Tc-99m-N2S2-TFP ester. […] Fractions of 1.0 ml were collected, and fractions containing annexin V were pooled. Protein concentration was determined by UV absorption at 280 nm. […] The ITLC sheets were cut into two halves, and each half was counted in a gamma counter or a dose calibrator. […] An animal model, as previously described in Example III, was employed to evaluate blood clearance of the molecules.
substance,measurement,value
Tc-99m-annexin V: annexin V radiolabeled with Tc-99m by a diamide dimercaptide N2S2 chelate (Example I),%ID/g a,a = 0.0389 %ID/g
same,%ID/g b,b = 0.0300 %ID/g
same,t1/2 a,a = 9.6 min
same,t1/2 b,b = 46 min
